Here are results for one molecule from article PMC5558740, “Absence of CX3CR1 impairs the internalization of Tau by microglia” (Molecular Neurodegeneration, 2017).

Experiment [1] deals with T1, Tau42 phosphorylated by GSK-3β (phospho-Tau) (human, UniProt P10636-8 1-441, phosphorylated by GSK-3β; phosphoserine at 396 (detected with anti-p-S396); other sites not stated).
T1 construct: the Cy5-labelled form (phospho-Tau-Cy5) was used for the uptake test on microglia; also called Tau phosphorylated by GSK-3β; source: recombinant Tau42 phosphorylated in vitro by GSK-3β (Sigma), heated 5 min at 100 °C, supernatant collected
In words: affinity chromatography; CX3CR1 peptide coupled to CNBr-activated Sepharose 4B; protein (1 mg/ml) loaded in buffer A (0.1 M Mes pH 6.4, 0.5 mM MgCl2, 2 mM EGTA); bound protein eluted with 0.5 M NaCl in buffer A; fractions read by dot immunoblot. The conditions noted are these: both partners purified.

For experiment [2], the target named is T2, recombinant human Tau isoform containing 2 N-terminal inserts and 4 microtubule binding repeats (Tau42) (human, UniProt P10636-8 1-441).
T2 construct: also called purified Tau; source: recombinant, isolated as described previously [25], purified
Described as above. The conditions noted are these: both partners purified.

T1 sequence (P10636 other isoform, or with tags, fused parts or gaps): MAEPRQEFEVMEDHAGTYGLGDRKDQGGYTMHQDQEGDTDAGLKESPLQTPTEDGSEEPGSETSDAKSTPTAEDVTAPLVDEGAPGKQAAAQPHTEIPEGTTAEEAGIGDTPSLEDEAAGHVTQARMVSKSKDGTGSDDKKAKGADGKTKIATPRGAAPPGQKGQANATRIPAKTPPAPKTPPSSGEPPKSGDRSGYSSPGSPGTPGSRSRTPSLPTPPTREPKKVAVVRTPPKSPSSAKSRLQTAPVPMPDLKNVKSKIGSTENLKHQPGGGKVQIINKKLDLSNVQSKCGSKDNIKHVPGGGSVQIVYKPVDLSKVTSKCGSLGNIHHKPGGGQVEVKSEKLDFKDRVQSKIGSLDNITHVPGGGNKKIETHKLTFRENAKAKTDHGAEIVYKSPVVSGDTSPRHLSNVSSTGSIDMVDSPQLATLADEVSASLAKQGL
T2 sequence (P10636 other isoform, or with tags, fused parts or gaps): as above

B1: synthetic CX3CR1 peptide (aa 2-21) containing the binding region to CX3CL1 (peptide)
peptide: DQFPESVTENFEYDDLAEAC
notes: also called synthetic receptor CX3CR1; source: synthetic peptide, bought: Abyntek
On to B1, for which the binding result in experiment [1] and in experiment [2] was “binds” each time.
